Laboratory results taken from paper PMC5238595.

How the values were obtained:
[1] = biological target: A47934 PCP-X di-domain construct with maltose binding protein as N-terminal fusion partner (Streptomyces toyocaensis)
[2] = biological target: PCP-X construct from teicoplanin biosynthesis with MBP as N-terminal fusion partner (Actinoplanes teichomyceticus) (UniProt Q70AZ6)
[3] = biological target: hybrid PCP-X construct: A47934 PCP-domain and teicoplanin X-domain, with MBP as N-terminal fusion partner (Streptomyces toyocaensis | Actinoplanes teichomyceticus) (UniProt Q70AZ6)
[4] = biological target: hybrid PCP-X construct: teicoplanin PCP-domain and A47934 X-domain, with MBP as N-terminal fusion partner (Actinoplanes teichomyceticus | Streptomyces toyocaensis)

Sequence of UniProt Q70AZ6 (Q70AZ6 entry or part of it): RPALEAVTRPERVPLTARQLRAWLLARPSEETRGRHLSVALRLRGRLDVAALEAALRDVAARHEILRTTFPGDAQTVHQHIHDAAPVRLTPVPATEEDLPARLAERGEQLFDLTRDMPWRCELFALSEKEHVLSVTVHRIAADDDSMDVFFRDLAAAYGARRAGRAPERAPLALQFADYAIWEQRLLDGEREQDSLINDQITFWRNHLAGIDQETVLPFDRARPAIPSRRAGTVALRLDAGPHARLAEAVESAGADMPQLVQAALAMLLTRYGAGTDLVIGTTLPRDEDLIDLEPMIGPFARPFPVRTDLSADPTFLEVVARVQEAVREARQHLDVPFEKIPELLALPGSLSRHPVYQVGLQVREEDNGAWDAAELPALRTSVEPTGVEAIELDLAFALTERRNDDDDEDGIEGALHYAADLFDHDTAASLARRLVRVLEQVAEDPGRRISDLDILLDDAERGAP

StaF turnover activity (bicyclic product / sum of mono- and bicyclic product, HPLC-MS) on Act7-rac-Hpg7 bound to MBP-PCP-Xsta, with StaH (entry 4) [1]: 25.5%
StaF turnover activity (bicyclic product / sum of mono- and bicyclic product, HPLC-MS) on Tei7-L-Hpg7 bound to MBP-PCP-Xsta, with StaH (entry 1) [1]: 23.8%
StaF turnover activity (bicyclic product / sum of mono- and bicyclic product, HPLC-MS) on Act7-rac-Hpg7 bound to MBP-PCP-Xtei, with StaH (entry 8) [2]: 24.9%
StaF turnover activity (bicyclic product / sum of mono- and bicyclic product, HPLC-MS) on Tei7-L-Hpg7 bound to MBP-PCP-Xtei, with StaH (entry 5) [2]: 5.7%
StaF turnover activity (bicyclic product / sum of mono- and bicyclic product, HPLC-MS) on Act7-rac-Hpg7 bound to MBP-PCPsta-Xtei, with StaH (entry 12) [3]: 7.8%
StaF turnover activity (bicyclic product / sum of mono- and bicyclic product, HPLC-MS) on Tei7-L-Hpg7 bound to MBP-PCPsta-Xtei, with StaH (entry 9) [3]: 2.9%
StaF turnover activity (bicyclic product / sum of mono- and bicyclic product, HPLC-MS) on Act7-rac-Hpg7 bound to MBP-PCPtei-Xsta, with StaH (entry 16) [4]: 31.5%
StaF turnover activity (bicyclic product / sum of mono- and bicyclic product, HPLC-MS) on Tei7-L-Hpg7 bound to MBP-PCPtei-Xsta, with StaH (entry 13) [4]: 21.1%
Substance: StaF, the D-O-E ring forming Oxy enzyme (cytochrome P450) from A47934 biosynthesis
